Biological target: oxidised human Prdx6 (Peroxiredoxin 6), peroxidatic cysteine in the sulfenic acid form (human) (UniProt P30041)
Experiment: SEC; Sephadex G-75, 20 mM Tris-HCl pH 7.0, 500 ul of 2 mg/ml protein, void volume by Blue dextran

- stoichiometry N: 2
Substance: oxidised human Prdx6 (Peroxiredoxin 6), peroxidatic cysteine in the sulfenic acid form (from UniProt P30041 1-224) (enzyme)

Source: paper PMC7566464
